Reference: US20140194361A1 (published 2014)
No end group written: not given here.

Biological target: α5β1 integrin receptor on primary mesangial cells
Assay: cell-based or functional assay

B1: modified CGRGDSP peptide (D-peptide) (peptide)
peptide: CGRGDSP
modifications: also: cyclic GRGDSP part, ring closure not given here
inhibition of MC adhesion to fibronectin-coated plates, enhanced potency of D- vs. E-control peptide compared to GRGDSP, at 200 µg/ml: 2.4 fold
inhibition of MC adhesion to fibronectin-coated plates, enhanced potency of D- vs. E-control peptide compared to GRGDSP, at 400 µg/ml: 2.8 fold
inhibition of mesangial cell binding to FN-coated plates, potency against GRGDSP: ~3 fold more potent than GRGDSP
